Reference: publication PMC10397247
Values belong to the binder of their own block, whether it stands above or below them.

Tests used:
P7A-bP = target: T1, P7A-bP; experiment: two-hybrid library CCNG1;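 further: natural log of median RNA to DNA barcode read ratio; higher means stronger binding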
T1 chain: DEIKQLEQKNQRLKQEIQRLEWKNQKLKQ

P8A-bP = target: T2, P8A-bP; experiment: two-hybrid library CCNG1;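 further: natural log of median RNA to DNA barcode read ratio; higher means stronger binding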
T2 chain: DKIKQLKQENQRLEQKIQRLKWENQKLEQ

P1A-bP = target: T3, P1A-bP; experiment: two-hybrid library CCNG1;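 further: natural log of median RNA to DNA barcode read ratio; higher means stronger binding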
T3 chain: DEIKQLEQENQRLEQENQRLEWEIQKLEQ

P5A-bP = target: T4, P5A-bP; experiment: two-hybrid library CCNG1;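 further: natural log of median RNA to DNA barcode read ratio; higher means stronger binding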
T4 chain: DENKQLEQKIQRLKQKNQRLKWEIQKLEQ

P12A-bP = target: T5, P12A-bP; experiment: two-hybrid library CCNG1
T5 chain: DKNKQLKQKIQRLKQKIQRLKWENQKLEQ

P6A-bP = target: T6, P6A-bP; experiment: two-hybrid library CCNG1
T6 chain: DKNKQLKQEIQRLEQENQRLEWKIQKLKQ

P4A-bP = target: T7, P4A-bP; experiment: two-hybrid library CCNG1
T7 chain: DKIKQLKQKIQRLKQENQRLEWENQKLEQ

P9A-bP = target: T8, P9A-bP; experiment: two-hybrid library CCNG1
T8 chain: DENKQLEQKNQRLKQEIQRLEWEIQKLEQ

P2A-bP = target: T9, P2A-bP; experiment: two-hybrid library CCNG1
T9 chain: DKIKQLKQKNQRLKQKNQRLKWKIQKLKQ

P3A-bP = target: T10, P3A-bP; experiment: two-hybrid library CCNG1
T10 chain: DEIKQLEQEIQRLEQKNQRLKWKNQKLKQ

4H3940-AA = target: T11, 4H3940-AA; experiment: two-hybrid library CCmax; conditions: mean of both orientations
T11 chain: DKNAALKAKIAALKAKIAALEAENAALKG

4H2187-AA = target: T12, 4H2187-AA; experiment: two-hybrid library CCmax
T12 chain: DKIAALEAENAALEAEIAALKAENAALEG

4H510-AA = target: T13, 4H510-AA; experiment: two-hybrid library CCmax; conditions: mean of both orientations
T13 chain: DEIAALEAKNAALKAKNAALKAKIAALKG

4H2758-AA = target: T14, 4H2758-AA; experiment: two-hybrid library CCmax; conditions: mean of both orientations
T14 chain: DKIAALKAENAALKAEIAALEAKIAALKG

4H2985-AA = target: T15, 4H2985-AA; experiment: two-hybrid library CCmax; conditions: mean of both orientations
T15 chain: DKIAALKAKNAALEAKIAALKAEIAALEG

4H278-AA = target: T16, 4H278-AA; experiment: two-hybrid library CCmax; conditions: mean of both orientations
T16 chain: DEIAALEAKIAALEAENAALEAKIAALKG

4H3409-AA = target: T17, 4H3409-AA; experiment: two-hybrid library CCmax; conditions: mean of both orientations
T17 chain: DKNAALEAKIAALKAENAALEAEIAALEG

4H1985-AA = target: T18, 4H1985-AA; experiment: two-hybrid library CCmax; conditions: mean of both orientations
T18 chain: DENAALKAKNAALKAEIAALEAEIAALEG

4H87-AA = target: T19, 4H87-AA; experiment: two-hybrid library CCmax; conditions: mean of both orientations
T19 chain: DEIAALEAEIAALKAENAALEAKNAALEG

4H2646-AA = target: T20, 4H2646-AA; experiment: two-hybrid library CCmax; conditions: mean of both orientations
T20 chain: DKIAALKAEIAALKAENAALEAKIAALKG

4H3625-AA = target: T21, 4H3625-AA; experiment: two-hybrid library CCmax; conditions: mean of both orientations
T21 chain: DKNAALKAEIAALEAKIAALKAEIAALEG

4H3134-AA = target: T22, 4H3134-AA; experiment: two-hybrid library CCmax; conditions: mean of both orientations
T22 chain: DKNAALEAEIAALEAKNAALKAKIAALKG

4H233-AA = target: T23, 4H233-AA; experiment: two-hybrid library CCmax; conditions: mean of both orientations
T23 chain: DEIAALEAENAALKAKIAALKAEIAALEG

4H775-AA = target: T24, 4H775-AA; experiment: two-hybrid library CCmax; conditions: mean of both orientations
T24 chain: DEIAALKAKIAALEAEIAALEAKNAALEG

4H816-AA = target: T25, 4H816-AA; experiment: two-hybrid library CCmax; conditions: mean of both orientations
T25 chain: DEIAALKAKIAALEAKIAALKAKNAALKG

4H2512-AA = target: T26, 4H2512-AA; experiment: two-hybrid library CCmax; conditions: mean of both orientations
T26 chain: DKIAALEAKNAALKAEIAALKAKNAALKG

4H2687-AA = target: T27, 4H2687-AA; experiment: two-hybrid library CCmax; conditions: mean of both orientations
T27 chain: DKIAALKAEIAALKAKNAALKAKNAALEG

4H2873-AA = target: T28, 4H2873-AA; experiment: two-hybrid library CCmax; conditions: mean of both orientations
T28 chain: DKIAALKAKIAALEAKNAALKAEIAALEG

4H2705-AA = target: T29, 4H2705-AA; experiment: two-hybrid library CCmax; conditions: mean of both orientations
T29 chain: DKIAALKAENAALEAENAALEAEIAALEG

4H1710-AA = target: T30, 4H1710-AA; experiment: two-hybrid library CCmax
T30 chain: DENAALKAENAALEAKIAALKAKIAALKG

4H390-AA = target: T31, 4H390-AA; experiment: two-hybrid library CCmax; conditions: mean of both orientations
T31 chain: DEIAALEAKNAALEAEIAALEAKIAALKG

interaction score (P7A-bP): -1.24
interaction score (P8A-bP): -1.36
interaction score (P1A-bP): -0.938
interaction score (P5A-bP): -1.95
interaction score (P12A-bP): -1.39
interaction score (P6A-bP): -1.09
interaction score (P4A-bP): -1.3
interaction score (P9A-bP): -0.693
interaction score (P2A-bP): -1.47
interaction score (P3A-bP): 1.06
Binder: DKNKQLKQKIQRLKQKIQRLKWENQKLEQ [P12A-bP]

interaction score (4H3940-AA): -0.657
interaction score (4H2187-AA): -0.907
interaction score (4H510-AA): -0.836
interaction score (4H2758-AA): 1.82
interaction score (4H2985-AA): 0.52
interaction score (4H278-AA): -0.799
interaction score (4H3409-AA): -0.675
interaction score (4H1985-AA): 2.15
interaction score (4H87-AA): -1.16
interaction score (4H2646-AA): -1.37
interaction score (4H3625-AA): -0.181
interaction score (4H3134-AA): -0.882
interaction score (4H233-AA): 1.63
interaction score (4H775-AA): -0.259
interaction score (4H816-AA): -0.912
interaction score (4H2512-AA): -0.967
interaction score (4H2687-AA): -1.29
interaction score (4H2873-AA): -0.937
interaction score (4H2705-AA): -0.626
interaction score (4H1710-AA): -0.109
interaction score (4H390-AA): 1.21
Binder: DENAALKAENAALEAKIAALKAKIAALKG [4H1710-AA]
